Test results as given in US20240116985A1 (published 2024).
Starred links: 1 amine or outer side, 2 acyl side, 3 side chain; linkers in the order of their positions; H or OH if unused. Positions of bridges follow the written chain, without caps; N, C: chain ends. Non-standard residues stand in square brackets, D forms with d. Primed or numbered codes have the meaning given here. B5(4) = 2,2-bis(4-pentenyl)glycine = 2-amino-2-(pent-4-en-1-yl)hept-6-enoic acid (stitching residue), C=CCCCC(CCCC=C)(N[*:1])C(=O)[*:2]; B5(6) = 2-amino-2-(pent-4-en-1-yl)hept-6-enoic acid (bis(4-pentenyl)glycine), stitching residue, C=CCCCC(CCCC=C)(N[*:1])C(=O)[*:2]; Bta = N[C@@H](Cc1csc2ccccc12)C(=O)O; αAllylPro = C=CC[C@@]1(C(=O)O)CCCN1; S8 = C=CCCCCCC[C@](C)(N)C(=O)O

How the values were obtained:
[1] = target: T1, B-cat-Halo (beta-catenin HaloTag NanoBRET construct expressed in HEK293 cells) (UniProt P35222 1-781); experiment: NanoBRET target engagement in HEK293 cells (B-cat-Halo / TCF4-Luc); absolute IC50; competitor TCF4-Luc
T1 construct: Transfected together with TCF4-Luc into HEK293 cells; not shown: HaloTag
T1 sequence (looked up): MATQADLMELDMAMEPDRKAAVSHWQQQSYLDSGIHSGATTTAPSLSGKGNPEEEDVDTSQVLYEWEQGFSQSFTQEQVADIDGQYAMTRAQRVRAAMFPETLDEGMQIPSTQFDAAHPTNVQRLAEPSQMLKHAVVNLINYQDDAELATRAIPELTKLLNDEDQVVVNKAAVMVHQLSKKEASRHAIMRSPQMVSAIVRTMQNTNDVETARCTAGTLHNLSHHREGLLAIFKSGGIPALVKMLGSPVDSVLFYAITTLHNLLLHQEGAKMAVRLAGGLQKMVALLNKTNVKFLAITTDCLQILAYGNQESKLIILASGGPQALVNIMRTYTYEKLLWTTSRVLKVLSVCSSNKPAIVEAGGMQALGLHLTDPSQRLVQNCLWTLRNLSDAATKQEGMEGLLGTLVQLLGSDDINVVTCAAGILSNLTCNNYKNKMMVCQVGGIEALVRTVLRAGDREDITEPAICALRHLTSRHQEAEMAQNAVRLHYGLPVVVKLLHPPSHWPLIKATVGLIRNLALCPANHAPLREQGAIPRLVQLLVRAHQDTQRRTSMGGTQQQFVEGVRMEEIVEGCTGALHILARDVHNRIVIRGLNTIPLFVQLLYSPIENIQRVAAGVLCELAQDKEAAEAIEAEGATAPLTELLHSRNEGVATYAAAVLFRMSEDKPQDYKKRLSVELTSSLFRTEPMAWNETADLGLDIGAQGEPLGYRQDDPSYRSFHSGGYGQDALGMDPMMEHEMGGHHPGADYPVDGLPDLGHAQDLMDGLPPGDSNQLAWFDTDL

[2] = target: T2, beta-catenin in DLD1 TCF/LEF luciferase reporter cells (Homo sapiens (Human), UniProt P35222 1-781); experiment: cell-based or functional assay
T2 sequence: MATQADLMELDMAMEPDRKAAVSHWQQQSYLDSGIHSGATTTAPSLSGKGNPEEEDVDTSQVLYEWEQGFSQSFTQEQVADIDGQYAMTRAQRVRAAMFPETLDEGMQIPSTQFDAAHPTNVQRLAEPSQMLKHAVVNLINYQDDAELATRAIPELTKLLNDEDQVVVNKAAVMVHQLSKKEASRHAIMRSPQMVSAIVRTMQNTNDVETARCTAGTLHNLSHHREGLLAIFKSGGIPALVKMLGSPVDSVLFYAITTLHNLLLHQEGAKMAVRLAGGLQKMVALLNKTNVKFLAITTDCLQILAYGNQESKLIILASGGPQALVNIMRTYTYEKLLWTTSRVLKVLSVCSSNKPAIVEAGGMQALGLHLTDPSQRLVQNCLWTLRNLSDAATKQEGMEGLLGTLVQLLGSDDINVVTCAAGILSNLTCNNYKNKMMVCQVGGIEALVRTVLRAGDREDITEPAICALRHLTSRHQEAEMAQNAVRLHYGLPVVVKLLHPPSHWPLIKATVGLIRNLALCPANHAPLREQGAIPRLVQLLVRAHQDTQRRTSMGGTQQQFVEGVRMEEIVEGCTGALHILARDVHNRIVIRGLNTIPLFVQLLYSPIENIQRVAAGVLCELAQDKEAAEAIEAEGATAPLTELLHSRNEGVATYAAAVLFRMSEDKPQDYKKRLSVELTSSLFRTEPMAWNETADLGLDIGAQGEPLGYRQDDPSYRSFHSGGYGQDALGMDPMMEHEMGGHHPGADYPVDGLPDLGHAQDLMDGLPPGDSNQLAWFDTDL

[3] = target: T1, B-cat-Halo (beta-catenin HaloTag …); experiment: NanoBRET target engagement in HEK293 cells (B-cat-Halo / TCF4-Luc); competitor TCF4-Luc
[4] = target: T3, full-length beta-Catenin (Uniprot ID P35222) (Homo sapiens (Human), UniProt P35222 1-781); experiment: fluorescence polarization competition; 10 nM full-length beta-catenin + 10 nM 5FAM-TCF4(10-53) probe
T3 construct: also called bCat; B-Catenin
T3 sequence: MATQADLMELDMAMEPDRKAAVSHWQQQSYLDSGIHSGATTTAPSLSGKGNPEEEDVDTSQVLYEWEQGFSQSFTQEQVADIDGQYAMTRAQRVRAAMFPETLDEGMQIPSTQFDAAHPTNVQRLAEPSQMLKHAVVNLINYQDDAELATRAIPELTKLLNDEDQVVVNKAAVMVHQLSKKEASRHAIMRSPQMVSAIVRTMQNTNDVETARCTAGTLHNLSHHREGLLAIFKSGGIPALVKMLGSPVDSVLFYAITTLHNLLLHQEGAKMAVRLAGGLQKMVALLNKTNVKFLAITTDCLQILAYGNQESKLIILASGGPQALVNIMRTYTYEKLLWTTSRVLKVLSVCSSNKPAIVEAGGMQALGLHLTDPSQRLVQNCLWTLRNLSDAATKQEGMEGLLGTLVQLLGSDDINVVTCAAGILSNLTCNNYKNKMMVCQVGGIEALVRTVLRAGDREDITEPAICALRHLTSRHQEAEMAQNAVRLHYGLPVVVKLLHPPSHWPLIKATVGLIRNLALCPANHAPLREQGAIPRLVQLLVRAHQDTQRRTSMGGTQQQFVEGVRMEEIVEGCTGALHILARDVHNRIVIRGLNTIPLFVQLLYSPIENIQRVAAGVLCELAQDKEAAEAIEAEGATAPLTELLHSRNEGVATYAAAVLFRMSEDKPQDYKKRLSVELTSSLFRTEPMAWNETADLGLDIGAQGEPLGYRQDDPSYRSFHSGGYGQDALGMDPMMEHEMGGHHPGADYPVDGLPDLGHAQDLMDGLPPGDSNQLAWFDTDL
Experimental: (§1) The plate was incubated protected from light for 60 minutes at 20° C. prior to read. Reads were performed on a CLARIOstar plate reader (BMG Labtech) in duplicate, and data were fitted to a 1:1 binding model with hill slope using an in-house script. All provided concentrations are final concentrations.

[5] = target: T4, full-length beta-Catenin (Uniprot ID P35222) (Homo sapiens (Human), UniProt P35222 1-781); experiment: fluorescence polarization competition; full-length beta-catenin, competitor 5FAM-TCF4(10-53) probe
T4 construct: Tags of the recombinant protein are not described for the FP assay; also called bCat; B-Catenin
T4 sequence: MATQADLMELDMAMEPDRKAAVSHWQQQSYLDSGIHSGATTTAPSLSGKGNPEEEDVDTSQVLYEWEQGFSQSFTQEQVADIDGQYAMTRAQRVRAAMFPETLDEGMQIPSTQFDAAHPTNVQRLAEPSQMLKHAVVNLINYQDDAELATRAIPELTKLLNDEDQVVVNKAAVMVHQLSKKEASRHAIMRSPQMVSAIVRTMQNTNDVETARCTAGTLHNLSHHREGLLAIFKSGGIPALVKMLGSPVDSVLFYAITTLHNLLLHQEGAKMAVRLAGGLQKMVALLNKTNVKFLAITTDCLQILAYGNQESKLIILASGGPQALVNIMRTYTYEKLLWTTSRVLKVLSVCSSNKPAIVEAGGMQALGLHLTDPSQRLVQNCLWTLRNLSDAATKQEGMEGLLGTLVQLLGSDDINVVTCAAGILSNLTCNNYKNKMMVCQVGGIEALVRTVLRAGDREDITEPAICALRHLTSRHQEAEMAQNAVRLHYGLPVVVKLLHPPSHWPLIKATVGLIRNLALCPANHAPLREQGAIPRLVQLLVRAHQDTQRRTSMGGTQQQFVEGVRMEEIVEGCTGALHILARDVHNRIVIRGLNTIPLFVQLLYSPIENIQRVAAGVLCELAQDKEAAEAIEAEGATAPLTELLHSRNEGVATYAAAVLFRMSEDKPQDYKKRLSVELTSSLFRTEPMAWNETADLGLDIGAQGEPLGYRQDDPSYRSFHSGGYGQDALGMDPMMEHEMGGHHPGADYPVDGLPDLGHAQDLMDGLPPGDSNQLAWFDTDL
In short: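 Plate incubated 60 minutes at 20° C. protected from light before reading. Concentrations given are final.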

B-cat-Halo = target: T5, B-cat-Halo (UniProt P35222 1-781, HaloTag NanoBRET 618 Ligand bound to the HaloTag in the assay); experiment: NanoBRET absolute IC50 in HEK293 cells; Bcat-Halo, competitor TCF4-Luc
T5 construct: Transfected into HEK293 cells for the NanoBRET assay; intracellular; also called beta-catenin HaloTag fusion; not shown: HaloTag
T5 sequence (looked up): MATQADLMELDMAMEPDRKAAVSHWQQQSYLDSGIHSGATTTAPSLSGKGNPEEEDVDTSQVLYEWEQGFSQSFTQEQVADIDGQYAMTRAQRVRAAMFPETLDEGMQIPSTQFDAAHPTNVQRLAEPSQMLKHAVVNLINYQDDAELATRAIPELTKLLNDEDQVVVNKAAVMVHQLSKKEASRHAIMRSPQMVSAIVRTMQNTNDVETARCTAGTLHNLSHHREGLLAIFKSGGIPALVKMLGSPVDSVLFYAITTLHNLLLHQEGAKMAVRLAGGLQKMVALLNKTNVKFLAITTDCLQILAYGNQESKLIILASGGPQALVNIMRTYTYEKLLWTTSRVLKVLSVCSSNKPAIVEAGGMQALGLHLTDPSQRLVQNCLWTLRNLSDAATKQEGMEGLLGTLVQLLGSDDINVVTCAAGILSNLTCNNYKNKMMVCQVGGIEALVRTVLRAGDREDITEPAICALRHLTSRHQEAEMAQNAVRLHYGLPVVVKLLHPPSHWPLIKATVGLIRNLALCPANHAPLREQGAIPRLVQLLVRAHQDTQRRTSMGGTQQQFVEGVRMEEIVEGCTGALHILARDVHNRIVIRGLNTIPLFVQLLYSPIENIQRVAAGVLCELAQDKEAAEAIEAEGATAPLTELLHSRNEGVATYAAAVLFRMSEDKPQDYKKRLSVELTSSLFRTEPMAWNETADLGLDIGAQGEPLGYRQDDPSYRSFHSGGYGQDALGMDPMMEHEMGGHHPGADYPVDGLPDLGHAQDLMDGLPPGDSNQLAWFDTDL

[6] = target: T6, full-length beta-Catenin (Uniprot ID P35222) (Homo sapiens (Human), UniProt P35222 1-781); experiment: fluorescence polarization competition; 10 nM full-length beta-catenin with 10 nM 5FAM-labeled TCF4 (residues 10-53) probe as competitor
T6 construct: The assay text says 'full-length beta-Catenin (Uniprot ID P35222)'; No tags are stated for the FP assay; also called bCat; B-Catenin
T6 sequence: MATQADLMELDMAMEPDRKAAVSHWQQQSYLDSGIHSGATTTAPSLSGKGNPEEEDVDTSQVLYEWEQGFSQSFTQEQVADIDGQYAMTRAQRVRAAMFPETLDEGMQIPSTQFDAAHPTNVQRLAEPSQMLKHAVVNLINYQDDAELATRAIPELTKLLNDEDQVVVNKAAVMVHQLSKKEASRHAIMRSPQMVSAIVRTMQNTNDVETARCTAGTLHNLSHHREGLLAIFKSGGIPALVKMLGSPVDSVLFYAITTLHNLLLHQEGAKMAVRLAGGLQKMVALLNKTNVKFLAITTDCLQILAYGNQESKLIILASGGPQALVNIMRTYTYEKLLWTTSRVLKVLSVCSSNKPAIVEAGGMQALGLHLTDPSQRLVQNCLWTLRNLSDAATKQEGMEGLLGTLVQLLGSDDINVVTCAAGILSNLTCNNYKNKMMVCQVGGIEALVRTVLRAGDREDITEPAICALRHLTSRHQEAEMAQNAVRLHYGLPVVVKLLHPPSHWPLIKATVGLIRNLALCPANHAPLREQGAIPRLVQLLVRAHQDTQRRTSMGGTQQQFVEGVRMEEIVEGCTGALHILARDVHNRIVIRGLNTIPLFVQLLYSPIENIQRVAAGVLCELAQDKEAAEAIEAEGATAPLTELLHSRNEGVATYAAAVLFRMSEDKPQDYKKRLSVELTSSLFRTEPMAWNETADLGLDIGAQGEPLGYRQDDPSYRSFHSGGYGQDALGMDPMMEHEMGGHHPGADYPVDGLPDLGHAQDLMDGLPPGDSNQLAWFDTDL
Experimental: as §1

B1: I-505 (peptide)
peptide: Ac-[αAllylPro]DL[B5(6)]DEAAFQ[S8]F[Bta]Q-NH2
modifications: staple 1-4, 4-11
notes: Stapled peptide composition; also called Ac-PL3-Asp-Leu-B5-Asp-Glu-Ala-Ala-Phe-Gln-S8-Phe-BztA-Gln-NH2
- NanoBRET Abs IC50 [1]: 4.9 µM
- DLD1 reporter assay Abs IC50 [2]: 10.8 µM
- IC50 [3]: 5.6 µM
- EC50 [4]: 0.023 µM

B2: I-1458 (peptide)
peptide: Ac-[αAllylPro]DL[B5(4)]DEAAFQ[S8]F[Bta]Q-NH2
modifications: staple 1-4, 4-11
- IC50 [5]: 0.026 µM
- IC50 (B-cat-Halo): 18.1 µM

B3: I-217 (peptide)
peptide: Ac-[αAllylPro]DA[B5(4)]DEAAXV[S8]FWQ-NH2
modifications: staple 1-4, 4-11; not fully specified (residue 9); printed as Ac-PL3-Asp-Ala-B5-Asp-Glu-Ala-Ala-MeTyr-Val-S8-Phe-Trp-Gln-NH2
notes: Stapled (stitched) peptide; also called Ac-PL3-Asp-Ala-B5-Asp-Glu-Ala-Ala-MeTyr-Val-S8-Phe-Trp-Gln-NH2
- IC50 [6]: 1.96 µM
